Key:
Format in all cases: cell-based
[1] = system: HL60/VCR (Vincristin resistant) cells; assay: MTT viability assay; details: 48 h
Description: Viability assays by conventional MTT assay protocol (Promega) were performed at 48 h after the beginning of the experiment.

HL60 cells = assay: JC-1 mitochondrial membrane potential staining, fluorescence microscopy
Source text: FIG. 14A is a graphical representation of green/red fluorescence intensity ratio data measured for treatment of HL60/VDR cells (a vinctrisin resistant cell line) as indicated for the x-axis. * indicates statistical significance.
Disruption of the mitochondrial membrane potential (Δψm) is an early event associated with apoptosis and may be one of several factors responsible for cytochrome c release (17, 18). Using JC-1 mitochondrial potential sensor (Molecular Probes, Inc) staining and fluorescence microscopy, we analyzed the Δψm in VCR (vincristin) treated HL60 cells. In healthy cells, the dye accumulates and aggregates in mitochondria, where it fluoresces bright red. In apoptotic cells, however, it cannot enter mitochondria if the Δψm is altered and fluoresces bright green as a cytoplasmic monomer. Therefore, mitochondria depolarization is indicated by a decrease of the red/green fluorescence intensity ratio.

CD24 expression = CD24 expression by RT-PCR in leukemia cell lines incubated with P1-TAT
Description: Reverse transcription was done in 20 μl containing a minimum of 1.25 μg of total RNA, 1 μl of 10 mM of deoxynucleotide triphosphate (NEB, Ipswitch, Mass.), 1 μl of 0.5 μg/μl oligo (dT) 18 (IDT, Coralville, Iowa), 1 μl of 40 U/μl ribonuclease inhibitor (Fermentas, Hanover, Md.), 2 μl of 10×reaction buffer (NEB), and 0.25 μl of 200 U/μl MMLV reverse transcriptase (NEB). After incubation with 1 μl of 5U μl RNase H (NEB) for 20 minutes, multiplex PCR reaction was carried out, allowing for simultaneous detection of CD24 and FLJ13639 expression levels. The primers are: CD 24 (resulting in an amplification product of 300 pb) forward: 5′[…]3′ (SEQ ID NO:12), reverse: 5′[…]3′ (SEQ ID NO:13). The primers for FLJ13639 P1 (resulting in an amplification product of 233 pb) are the same as those described in Example 1. The reactions were of an initial denaturation at 95° C. for 10 minutes, followed by 35 cycles: denaturation, 50 seconds at 95° C., annealing 50 seconds at 54° C. and extension 60 seconds at 75° C. Actin amplification was performed as an internal control, according to the following protocol: 15 seconds at 95° C., 30 seconds at 60° C. and 60 seconds at 75° C.
After 48 hours of incubation, cells were harvested, RNA was extracted and cDNA was used for CD24 expression assessment by RT-PCR.
(§1) The same results were obtained using the OVCAR3 ovarian cancer cell line (not shown).

H520 cells = assay: Wound healing assay, lung cancer cells; details: treated vs not treated, 5 days
Description: FIG. 12A is a photographic representation of a wound healing assay performed on lung cancer cell lines. The H520 cells were treated (or not treated) with the FLJP1-TAT and motility of cells was monitored through a light microscope to analyze closing of the created gap.
(§2) This was performed by growing the cells to confluence and forming a “wound” by scoring the culture with a pipette tip. The cells were then treated with P1-TAT and assessed for their ability to close the gap between the two artificially created cell populations.

MCF7 = assay: Wound healing assay, breast cancer cells; details: treated vs not treated
Description: FIG. 12B is a wound healing assay as depicted in FIG. 12A performed on breast cancer cells.
as §2

CD24 protein expression = CD24 protein expression by immunofluorescence; details: OM9;22 ALL cell line, 48 hours of treatment
Source text: as §1

HeLa cells = assay: Lactic acid production in culture medium; details: treated for 3 days vs not treated
Description: Mitochondria are well known for their essential role in cell respiration and apoptosis. Cancer cells are known to have altered mitochondrial respiration, where pyruvate is catabolized in the lactic acid fermentation pathway instead of being used in the Krebbs cycle in the mitochondria, which produces energy far more efficiently. […] Culture medium was tested for lactic acid levels.

UoCB1 cells = assay: Matrigel invasion assay; details: 20 μg of P1-TAT for 48 h, treatment versus no treatment
Source text: To perform the Matrigel invasion assay, cells were deposited on top of a matrigel well and chemoattractant (fetal bovine serum) solutions were positioned below the matrigel matrix. Only cells with an invasive potential will “travel” toward the chemoattractant solutions through the matrigel.

Molecule: CC[C@]1(O)C[C@H]2CN(CCc3c([nH]c4ccccc34)[C@@](C(=O)OC)(c3cc4c(cc3OC)N(C=O)[C@H]3[C@@](O)(C(=O)OC)[C@H](OC(C)=O)[C@]5(CC)C=CCN6CC[C@]43[C@@H]65)C2)C1 [Vincristin, vincristin]
- cytotoxicity at 1 µM ([1]; HL60/VCR, Vincristin 1 μM, read-out: reduction of cell viability): 90%
- effect on cell viability ([1]; Vincristin 0.1 μM): almost no effect
- green/red fluorescence ratio (HL60 cells; 0.1 ug of VCR alone): low green/red fluorescence ratio
- green/red fluorescence ratio (HL60 cells; 1 ug of VCR alone, p<0.01): significant increase

B1: P1-TAT: recombinant FLJ13639/P1 protein in frame with HIV TAT protein transduction domain and 6×Histidine tag; amino acid sequence SEQ ID NO:5 (protein)
chain: MRGSHHHHHHGMASMTGGQQMGRDLYDDDDKDRWGSKLGYGRKKRRQRRRGGSTMSGYPYDVPDYAGSMAGTGLESLYRSVVWFAKGLREYTKSGYESACKDFVPHDLEVQIPGRVFLVTGGNSGIGKATALEIAKRGGTVHLVCRDQAPAEDARGEIIRESGNQNIFLHIVDLSDPKQIWKFVENFKQEHKLHVLINNAGCMVNKRELTEDGLEKNFAANTLGVYILTTGLIPVLEKEHDPRVITVSSGGMLVQKLNTNDLQSERTPFDGTMVYAQNKRQQVVLTERWAQGHPAIHFSSMHPGWADTPGVRQAMPGFHARFGDRLRSEAQGADTMLWLALSSAAAAQPSGRFFQDRKPVSTHLPLATASSSPAEEEKLIEILEQLAQTFK
- CD24 expression (CD24 expression; OM9:22, ALL-1, K562, 207 cell lines, 20 μg of P1-TAT (data not shown)): marked CD24 down-regulation
- CD24 expression levels (CD24 expression; UoCB1 cell line, increasing amount of P1-TAT, 48 hours, RT-PCR): inversely proportional
- CD24 levels, time-course (CD24 expression; UoCB1 cells, 20 μg of P1-TAT, six hours after incubation): significantly downregulated
- motility / closing of the gap (H520 cells): significantly reduced the motility
- motility / closing of the gap (H520 cells; listed as FLJ13639P1-TAT): inhibited filling of the gap
- motility / closing of the gap (MCF7): significantly reduced the motility
- CD24 protein expression (CD24 protein expression): down-regulated
- level of lactic acid in culture medium (HeLa cells): significantly lower level
- decrease of invasion potential (UoCB1 cells): 2.4 fold

Source: patent publication US20090042782A1, “Diagnostic and therapeutic strategies for conditions associated with the FLJ13639 gene” (priority 2005, published 2009)
